Assay results from patent US20260242419A1, “A CYCLIC PEPTIDE FOR TRAPPING INTERLEUKIN-1 BETA” (Merck Sharp & Dohme LLC, priority 2023, published 2026).
Starred links: 1 amine or outer side, 2 acyl side, 3 side chain; linkers in the order of their positions; H or OH if unused. Non-standard residues stand in square brackets, D forms with d. SbOHPhe4CONH2 = (2S,3S)-2-amino-3-(4-carbamoylphenyl)-3-hydroxypropanoic acid, NC(=O)c1ccc([C@H](O[*:3])[C@H](N[*:1])C(=O)[*:2])cc1; TyrEtNAc = (2S)-3-[4-(2-acetamidoethoxy)phenyl]-2-amino-propanoic acid, CC(=O)NCCOc1ccc(C[C@H](N[*:1])C(=O)[*:2])cc1; ThrOEt = O-ethyl-L-threonine, CCO[C@H](C)[C@H](N[*:1])C(=O)[*:2]; dPro(4R-(4-pyridylmethyl)) = O=C(O)[C@H]1C[C@@H](Cc2ccncc2)CN1; Trp(βS-Me,4-F) = C[C@@H](c1c[nH]c2cccc(F)c12)[C@H](N)C(=O)O; Ala(pyrimidin-5-yl) = N[C@@H](Cc1cncnc1)C(=O)O; Phe(4-CONH2) = NC(=O)c1ccc(C[C@H](N)C(=O)O)cc1; Pro(cis-4-F) = O=C(O)[C@@H]1C[C@H](F)CN1; 4Pal = N[C@@H](Cc1ccncc1)C(=O)O; NMeDab = CN[C@@H](CCN)C(=O)O; Dab = NCC[C@H](N)C(=O)O; Aib = CC(C)(N)C(=O)O

B1: SEQ ID NO 383 (peptide)
peptide: cyclo([TyrEtNAc][4Pal][SbOHPhe4CONH2]G[Pro(cis-4-F)][Trp(βS-Me,4-F)][Aib]SW[Aib][Ala(pyrimidin-5-yl)]Q[NMeDab]G[dPro(4R-(4-pyridylmethyl))])
SMILES: CC(=O)NCCOc1ccc(C[C@@H]2NC(=O)[C@H]3C[C@@H](Cc4ccncc4)CN3C(=O)CNC(=O)[C@H](CCN)N(C)C(=O)[C@H](CCC(N)=O)NC(=O)[C@H](Cc3cncnc3)NC(=O)C(C)(C)NC(=O)[C@H](Cc3c[nH]c4ccccc34)NC(=O)[C@H](CO)NC(=O)C(C)(C)NC(=O)[C@H]([C@@H](C)c3c[nH]c4cccc(F)c34)NC(=O)[C@@H]3C[C@H](F)CN3C(=O)CNC(=O)[C@H]([C@@H](O)c3ccc(C(N)=O)cc3)NC(=O)[C@H](Cc3ccncc3)NC2=O)cc1
B2: SEQ ID NO 382 (peptide)
peptide: cyclo([TyrEtNAc][4Pal][Phe(4-CONH2)]G[Pro(cis-4-F)][Trp(βS-Me,4-F)][Aib]SW[Aib][ThrOEt]Q[NMeDab]G[dPro(4R-(4-pyridylmethyl))])
SMILES: CCO[C@H](C)[C@@H]1NC(=O)C(C)(C)NC(=O)[C@H](Cc2c[nH]c3ccccc23)NC(=O)[C@H](CO)NC(=O)C(C)(C)NC(=O)[C@H]([C@@H](C)c2c[nH]c3cccc(F)c23)NC(=O)[C@@H]2C[C@H](F)CN2C(=O)CNC(=O)[C@H](Cc2ccc(C(N)=O)cc2)NC(=O)[C@H](Cc2ccncc2)NC(=O)[C@H](Cc2ccc(OCCNC(C)=O)cc2)NC(=O)[C@H]2C[C@@H](Cc3ccncc3)CN2C(=O)CNC(=O)[C@H](CCN)N(C)C(=O)[C@H](CCC(N)=O)NC1=O

molecular target: Recombinant human IL-1β (BioLegend 579404) (human, UniProt P01584 117-269); assay: cell-based or functional assay

Row | MRC5 IC50 | Binder
1 | 0.042 nM | B1
2 | 0.086 nM | cyclo([TyrEtNAc][4Pal][Phe(4-CONH2)]G[Pro(cis-4-F)][Trp(βS-Me,4-F)][Aib]SW[Aib][Ala(pyrimidin-5-yl)]Q[Dab]G[dPro(4R-(4-pyridylmethyl))]) [SEQ ID NO 384]
3 | 0.048 nM | B2
